Data: the RNAGym collection of RNA variant scans (doi:10.1093/molbev/msab373)

B1: Azoarcus group I ribozyme (parent)
chain: GUGCCUUGCGCCGGGAAACCACGCAAGGGAUGGUGUCAAAUUCGGCGAAACCUAAGCGCCCGCCCGGGCGUAUGGCAACGCCGAGCCAAGCUUCGGCGCCUGCGCCGAUGAAGGUGUAGAGACUAGACGGCACCCACCUAAGGCAAACGCUAUGGUGAAGGCAUAGUCCAGGGAGUGGCGAAAGUCACACAAACCGG

Variants of: B1
Test: reverse-splicing fitness (ratio to wild type); higher = more active; in vitro selection; Mg2+ level not given
How it was run: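 An in vitro group I ribozyme library with randomized positions was T7-transcribed and gel-purified. In triplicate, 10 pmol RNA in EPPS pH 7.5 was reacted with 50 pmoles of a 30-nt RNA substrate for 1 h at 37 °C across several added MgCl2 levels (1–48 mM), then stopped with EDTA. Products were reverse transcribed from a substrate-complementary primer, PCR-amplified and sequenced (HiSeq 4000). Fitness is a variant's read proportion after selection over that before, normalised to wild type.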

Variant	reverse-splicing fitness
C82A A111C A145G U176A	0.0768
C82A A111C A145G U176G	0.017
C82A A111C A145G U176C	0.0992
C82A A111C A145G C169A U176G	0.0069
C82A A111C A145G C169A U176A	0.0211
C82A A111C A145G C169A U176C	0.029
C82A A111C A145G C150G C169G U176C	0.0128
C82A A111C A145G C150G C169G U176G	0.00568
C82A A111C A145G C150G C169G U176A	0.00988
C82A A111C A145C C150G U176C	0.016
C82A A111C A145C C150G U176G	0.00408
C82A A111C A145C C150G U176A	0.00906
C82A A111C A145C C150U C169U	0.0121
C82A A111C A145C C150U C169G	0.0076
C82A A111C A145C C150U C169A	0.00801
C82A A111C A145U C150A C169A U176C	0.0143
C82A A111C A145U C150A C169A U176G	0.00891
C82A A111C A145U C150A C169A U176A	0.0148
C82A A111C A145U C150U C169G U176G	0.00855
C82A A111C A145U C150U C169G U176A	0.0143
C82A A111C A145U C150U C169G U176C	0.0179
C82A A111C A145C C150U U176G	0.00993
C82A A111C A145C C150U U176A	0.0236
C82A A111C A145C C150U U176C	0.0355

Variant	reverse-splicing fitness
C82A A111C A145U C169G U176G	0.00756
C82A A111C A145U C169G U176C	0.0193
C82A A111C A145U C169G U176A	0.0124
C82A A111C A145G C169G U176A	0.0221
C82A A111C A145G C169G U176G	0.00836
C82A A111C A145G C169G U176C	0.0335
C82A A111C A145C C150U C169A U176A	0.0127
C82A A111C A145C C150U C169A U176C	0.01
C82A A111C A145C C150U C169A U176G	0.0095
C82A A111C A145G C150G C169G	0.00662
C82A A111C A145G C150G C169U	0.00803
C82A A111C A145G C150G C169A	0.00852
C82A A111C A145C C150G C169A U176C	0.00911
C82A A111C A145C C150G C169A U176G	0.00742
C82A A111C A145C C150G C169A U176A	0.00837
C82A A111C A145C C150G C169U U176A	0.00753
C82A A111C A145C C150G C169U U176G	0.00706
C82A A111C A145C C150G C169U U176C	0.0112
C82A A111C A145U C150A C169G U176C	0.022
C82A A111C A145U C150A C169G U176A	0.014
C82A A111C A145U C150A C169G U176G	0.0087
C82A A111C A145G C150A U176C	0.0335
C82A A111C A145G C150A U176A	0.0153
C82A A111C A145G C150A U176G	0.00922

Variant	reverse-splicing fitness
C82A A111C A145U C150U C169U U176C	0.0144
C82A A111C A145U C150U C169U U176G	0.00857
C82A A111C A145U C150U C169U U176A	0.0172
C82A A111C A145G C150U C169A	0.0103
C82A A111C A145G C150U C169U	0.0119
C82A A111C A145G C150U C169G	0.00915
C82A A111C A145U C150G C169U U176G	0.00827
C82A A111C A145U C150G C169U U176C	0.0113
C82A A111C A145U C150G C169U U176A	0.00845
C82A A111C A145C C150G C169A	0.00764
C82A A111C A145C C150G C169U	0.0102
C82A A111C A145C C150G C169G	0.00663
C82A A111C A145U C150U U176C	0.0623
C82A A111C A145U C150U U176G	0.0141
C82A A111C A145U C150U U176A	0.0486
C82A A111C A145C C169U U176A	0.0142
C82A A111C A145C C169U U176G	0.00646
C82A A111C A145C C169U U176C	0.0138
C82A A111C A145C C150U	0.0486
C82A A111C A145G C169U	0.0142
C82A A111C A145G C169A	0.0103
C82A A111C A145G C169G	0.00878
C82A A111C A145U C150A	0.0227
C82A A111C A145U C150G	0.0181

Variant	reverse-splicing fitness
C82A A111C A145U C150U	0.135
C82A A111C A145C C150U C169U U176G	0.00776
C82A A111C A145C C150U C169U U176A	0.0133
C82A A111C A145C C150U C169U U176C	0.0108
C82A A111C A145G C150U C169G U176G	0.00687
C82A A111C A145G C150U C169G U176A	0.0115
C82A A111C A145G C150U C169G U176C	0.0162
C82A A111C A145U C169G	0.0101
C82A A111C A145U C169A	0.0078
C82A A111C A145G C150G C169U U176C	0.0116
C82A A111C A145G C150G C169U U176G	0.00666
C82A A111C A145G C150G C169U U176A	0.0112
C82A A111C A145G C169U U176G	0.0073
C82A A111C A145G C169U U176A	0.0177
C82A A111C A145G C169U U176C	0.0149
C82A A111C A145G C150G U176C	0.0173
C82A A111C A145G C150G U176G	0.00607
C82A A111C A145G C150G U176A	0.00936
C82A A111C A145C U176C	0.0878
C82A A111C A145C U176G	0.0188
C82A A111C A145C U176A	0.0639
C82A A111C A145U C150G C169A U176C	0.0117
C82A A111C A145U C150G C169A U176G	0.00861
C82A A111C A145U C150G C169A U176A	0.0098

Variant	reverse-splicing fitness
C82A A111C A145G C150G C169A U176A	0.0119
C82A A111C A145G C150G C169A U176G	0.00877
C82A A111C A145G C150G C169A U176C	0.0134
C82A A111C A145C C169G	0.00923
C82A A111C A145C C169U	0.0124
C82A A111C A145C C169A	0.00711
C82A A111C A145G C150U C169U U176A	0.0138
C82A A111C A145G C150U C169U U176C	0.0143
C82A A111C A145G C150U C169U U176G	0.00766
C82A A111C A145U C150A C169U U176C	0.0167
C82A A111C A145U C150A C169U U176A	0.0155
C82A A111C A145U C150A C169U U176G	0.00853
C82A A111C A145U C150A U176A	0.0127
C82A A111C A145U C150A U176G	0.00868
C82A A111C A145U C150A U176C	0.0205
C82A A111C A145G C150G	0.0238
C82A A111C A145G C150U	0.174
C82A A111C A145G C150A	0.0316
C82A A111C A145G C150A C169U U176C	0.0158
C82A A111C A145G C150A C169U U176A	0.0149
C82A A111C A145G C150A C169U U176G	0.00882
C82A A111C A145G C150A C169A U176A	0.0172
C82A A111C A145G C150A C169A U176C	0.0191
C82A A111C A145G C150A C169A U176G	0.0091

Variant	reverse-splicing fitness
C82A A111C A145U C150G C169G U176A	0.00679
C82A A111C A145U C150G C169G U176G	0.00861
C82A A111C A145U C150G C169G U176C	0.0061
C82A A111C A145U C169A U176C	0.0156
C82A A111C A145U C169A U176G	0.0095
C82A A111C A145U C169A U176A	0.0138
C82A A111C A145G C150A C169G U176C	0.0253
C82A A111C A145G C150A C169G U176G	0.0087
C82A A111C A145G C150A C169G U176A	0.0152
C82A A111C A145C C150U C169G U176G	0.00845
C82A A111C A145C C150U C169G U176A	0.0253
C82A A111C A145C C150U C169G U176C	0.0195
C82A A111C A145C C150G C169G U176G	0.00714
C82A A111C A145C C150G C169G U176C	0.00759
C82A A111C A145C C150G C169G U176A	0.00778
C82A A111C A145G C150U U176C	0.086
C82A A111C A145G C150U U176A	0.0494
C82A A111C A145G C150U U176G	0.0141
C82A A111C A145C C169G U176C	0.0216
C82A A111C A145C C169G U176A	0.0269
C82A A111C A145C C169G U176G	0.00783
C82A A111C A145U C150G C169G	0.00748
C82A A111C A145U C150G C169U	0.00887
C82A A111C A145U C150G C169A	0.0091

Variant	reverse-splicing fitness
C82A A111C A145G C150A C169U	0.0111
C82A A111C A145G C150A C169G	0.00824
C82A A111C A145G C150A C169A	0.011
C82A A111C A145U	0.229
C82A A111C A145G	0.258
C82A A111C A145U C150A C169G	0.00915
C82A A111C A145U C150A C169A	0.00982
C82A A111C A145U C150A C169U	0.0123
C82A A111C A145U C150U C169A U176A	0.014
C82A A111C A145U C150U C169A U176G	0.00861
C82A A111C A145U C150U C169A U176C	0.0146
C82A A111C A145G C150U C169A U176C	0.0148
C82A A111C A145G C150U C169A U176G	0.00833
C82A A111C A145G C150U C169A U176A	0.0141
C82A A111C A145C C169A U176G	0.00693
C82A A111C A145C C169A U176C	0.00942
C82A A111C A145C C169A U176A	0.0135
C82A A111C A145U C150U C169G	0.00899
C82A A111C A145U C150U C169U	0.0128
C82A A111C A145U C150U C169A	0.00867
C82A A111C A145U C150G U176A	0.00919
C82A A111C A145U C150G U176G	0.00428
C82A A111C A145U C150G U176C	0.0161
